This is an account of results in patent US20110064751A1 (Hoffmann-La Roche, published 2011).

For test [1], the target named is T1, Extra Domain B of fibronectin (EDB) (UniProt P02751 1266-1356).
T1 construct: domain: Extra Domain B; construct not described; also called fibronectin Ectodomain-B
The experiment in a line: BIACORE SPR, EDB immobilized on the chip, analyte at 1.56, 3.125 and 6.25 nM.

The target in test [2] is T1, Extra Domain B of fibronectin (EDB). The experiment in a line: SPR (BIACORE), EDB immobilized on the chip, construct as analyte. For orientation: SPR reads the build-up and loss of mass on a sensor chip optically.
The target in test [3] is T2, Human TNC-A1 + avi-tag + his6-tag (human, biotinylated in vivo at the avi-tag).
T2 chain: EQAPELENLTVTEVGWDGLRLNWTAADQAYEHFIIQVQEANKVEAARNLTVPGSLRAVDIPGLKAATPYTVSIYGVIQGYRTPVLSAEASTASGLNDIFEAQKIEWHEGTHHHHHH
Description: phage display selection and ELISA on biotinylated human TNC-A1. The method, then: See SEQ ID NO: 59 of Table 5. The antigen was biotinylated in vivo upon expression.
Selections were carried out over 3 rounds using constant antigen concentrations at 100 nM. In round 2, capture of antigen:phage complexes was performed on neutravidin plates instead of streptavidin beads.

Test [4] concerns the target T3, Murine FAP ectodomain + poly-lys-tag + his6-tag (murine, UniProt P97321 27-761).
T3 construct: also called mu FAP
Description: primary phage selections, ELISA and BIACORE kinetic screening. The procedure:
See SEQ ID NOs: 53 and 55 of Table 5. Prior to selections, the antigens were coated into immunotubes at a concentration of either 10 μg/ml or 5 μg/ml, depending on round of selection.
Specific binders were defined as signals 5× higher than background and were identified by ELISA.
ELISA-positive clones were bacterially expressed as 1 mL cultures in 96-well format and supernatants were subjected to a kinetic screening experiment using BIACORE T100.
On the technique in general: ELISA stands for enzyme-linked immunosorbent assay.

T1 sequence (P02751 1266-1356 limits assumed): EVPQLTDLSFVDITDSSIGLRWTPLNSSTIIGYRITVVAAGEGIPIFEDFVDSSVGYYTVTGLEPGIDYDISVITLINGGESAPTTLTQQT

B1: L19 IgG (L19 antibody in the human IgG1 format) (antibody, V domains shown)
VH: EVQLLESGGGLVQPGGSLRLSCAASGFTFSSFSMSWVRQAPGKGLEWVSSISGSSGTTYYADSVKGRFTISRDNSKNTLYLQMNSLRAEDTAVYYCAKPFPYFDYWGQGTLVTVSS
VL: EIVLTQSPGTLSLSPGERATLSCRASQSVSSSYLAWYQQKPGQAPRLLIYYASSRATGIPDRFSGSGSGTDFTLTISRLEPEDFAVYYCQQTGRIPPTFGQGTKVEIK
notes: Human IgG1 format; also called the IgG
For orientation: Kd means the concentration at which binding is half-saturated. A higher Kd goes with weaker binding. By koff is commonly meant the first-order rate constant of dissociation. A lower koff goes with slow dissociation. Usually kon stands for the rate constant with which the complex forms. Lower therefore signals slower complex formation. Take B1: in test [1], binding was characterised by a dissociation constant (Kd) of 0.263 nM, the koff turned out to be 0.000637 s⁻¹ and the kon was found to be 2.42e+06 M⁻¹ s⁻¹. Besides, the affinity in test [2], expressed as Kd, was 0.26 nM.

B2: 2F11 Fab (Fab, V domains shown)
VH: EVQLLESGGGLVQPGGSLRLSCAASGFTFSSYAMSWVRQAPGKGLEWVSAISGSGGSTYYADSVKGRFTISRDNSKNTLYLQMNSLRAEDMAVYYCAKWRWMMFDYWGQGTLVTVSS
VL: EIVLTQSPGTLSLSPGERATLSCRASQSVSSSYLAWYQQKPGQAPRLLIYGASSRATGVPDRFSGSGSGTDFTLTISRLEPEDFAVYYCQQGQYTPPTFGQGTKVEIK
notes: Fab fragment; also called clone 2F11
As for B2, in test [3], the binding result is “binds”.

B3: 4B8 Fab (Fab, V domains shown)
VH: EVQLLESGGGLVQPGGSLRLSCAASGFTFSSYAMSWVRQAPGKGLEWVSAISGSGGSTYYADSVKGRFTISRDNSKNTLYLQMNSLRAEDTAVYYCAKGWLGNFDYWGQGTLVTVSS
VL: EIVLTQSPGTLSLSPGERATLSCRASQSVSSSYLAWYQQKPGQAPRLLIYGASSRATGIPDRFSGSGSGTDFTLTISRLEPEDFAVYYCQQGQVIPPTFGQGTKVEIK
notes: Fab fragment; also called anti-murine FAP clone 4B8
As for B3, in test [4], the binding result was “binds”.
